Peptide text beside a SMILES is read from it. * marks the point of attachment. Propyl(3-UDP) = O=c1ccn([C@@H]2O[C@H](COP(=O)(O)OP(=O)(O)OCCC*)[C@@H](O)[C@H]2O)c(=O)[nH]1
How the values were obtained:
[1] = target: T1, TaOGT (Trichoplax O-GlcNAc transferase) (Trichoplax adhaerens, UniProt A0A0D5X2K0); assay: fluorescence UDP-detection OGT assay, […] UDP-GlcNAc; format: biochemical
T1 construct: TaOGT, start identified by RACE, wild type, GST tag cleaved

[2] = target: TaOGA53 (Trichoplax O-GlcNAcase) (Trichoplax adhaerens, UniProt A0A0D5X1V2)
purified protein = substrate: CC(=O)N[C@H]1[C@H](Oc2ccc3c(C)cc(=O)oc3c2)O[C@H](CO)[C@@H](O)[C@@H]1O; assay: purified protein
[3] = substrate: CC(=O)N[C@H]1[C@@H](OP(=O)(O)OP(=O)(O)OC[C@H]2O[C@@H](n3ccc(=O)[nH]c3=O)[C@H](O)[C@@H]2O)O[C@H](CO)[C@@H](O)[C@@H]1O; assay: steady-state kinetics (Km), fluorescence UDP-detection assay; format: biochemical, Trichoplax adhaerens
Procedure: steady-state kinetics (Km), fluorescence UDP-detection assay on TaOGT (Trichoplax O-GlcNAc transferase) | The Km for UDP-GlcNAc was measured in the presence of excess peptide substrate

For `CC(=O)N[C@H](C(=O)N[C@H](C(=O)N1CCC[C@H]1C(=O)N[C@H](C(=O)N[C@@H](COCCCOP(=O)(O)OP(=O)(O)OC[C@H]1O[C@@H](n2ccc(=O)[nH]c2=O)[C@H](O)[C@@H]1O)C(=O)N[C@H](C(=O)N[C@@H](C)C(N)=O)[C@@H](C)O)C(C)C)[C@@H](C)O)C(C)C` [Goblin 1] (Ac-VTPVS(Propyl(3-UDP))TA-NH2), the IC50 [1] was 27 µM.

For `CCNC1=N[C@@H]2[C@@H](O)[C@H](O)[C@@H](CO)O[C@@H]2S1` [Thiamet G], the IC50 [2] was “c, IC50 of Thiamet G and GlcNAcstatin C for TaOGA53”.

B1: TaOGA54 (Trichoplax O-GlcNAcase) (Trichoplax adhaerens) (protein)
chain: MTSDKFLSGVVEGFYGKPWSFEQRKTLFSNMAKWGLNTYMYGPKDDEKHRAAWKQAYSKREGDSLRALIRAAEESGILFIYAISPGVDITYSSNRDMKFLKDKLDQIRNFGCNSFAIFFDDIDTVMCLQDQEEFESFAAAQVEVTNEIYKYLGMPANFLFCPTEYCAARADPNVKESKYLVTVGTGLHSDIHIMWTGPKVVSNKISVESILELQTVLRRKPVIWDNIHANDYEQGRLNLGPYDCRPAELMESLNGIFTNPNCEFELNYVPIRTFSLWCQSKRTRFNYDVEKALEQSIREWTEEFCIPRLPDGYLLEADTSDTNVNEYMDDEMQSDSRPISPANSMETDKDELTVKDIRLLVELFYLPQKHGKTANDLLAQAKWLKSNFRIAALSRKPNDTSEGSNLDEHNTDYIAAKEWDKRFSKFRSICQIIHQFGDRLMTCRNRVLLYEVYNYVADLCGILYHLISRIHSLANPEKLEKRSDSEQSSFRYGGFVGDIHRLIVSTDEYEESTLKNSDAYVIRPFMPSDEETLYDLCLKSCIENSNGDEIYKREPRIIGDRDLGAYIYLHPEYIYVLEDDRDKICGYLCGALDSKQFYERYESEWLTQIRDRHPQPENDIASWTPEEIVANSFYNFTPPTDVSVLYLSHLEARFDSSVPEKVIKRIIRFILEQLKAKGSYGASMLIDSWRTNLRRIFTSMGFVDLQEYSWMSEQKCMIAIKLM
Molecule B1 has a Km (purified protein) of 2000 ± 100 µM.

B2: TaOGA53 (Trichoplax O-GlcNAcase) (Trichoplax adhaerens) (protein)
chain: MNHNFICGVIEGFYGLPWSFTDRLDLFERLKKWGLNTYIYGPKDDYKHRSAWRDLYTETEADLFRALIKNAIVNDVIFVYAISPGNDICYSNASDIAALKDKLDQVRSFGCEAFAVFFDDIYCTMSKKDKGNFASFADAHVYIANLIYEHLNRPAVFMFCPTEYCATRAVPSVENSPYLTVIGDKLHPDVKVLWTGPDVISPFISVDSILALQEILKRKPIIWDNIHANDYDHSRIFLGPYQDRPIELAKVLSGVITNPNCEYRMNYVPIRTFSLWCQSQDKDDVQYSAESALTCAVEEWVKEFSVPSQLNIDQENIAVTMKDGIAKKDMTVTTEHLLLLIDIFYLPHKYGRHSIHLINMARWLQVNSNMITSTKETDKATSPSVKMWFQVFNEFNSLCQGILLLYDYLTMCPNQAISRELNSYIINLKKIFHILSLHINSLGTEATKHSSDATDTVDSSDAVVYGGILGEVVKIIKEGSDGDLKSSQQQVTACAIEVSLKNSDANMGADIPTNATVIG
B2 showed a Km (purified protein) of 78 ± 5 µM.

B3: TaOGT (Trichoplax O-GlcNAc transferase) (Trichoplax adhaerens) (protein)
chain: MVDQTNGIAEIAHREYQQGNYERAEHLAMEWWRHEQDNVGVLLLLSSIHFQTRKLDKSAHFCNMAIKSNPALSEAYSNLGNVFKERNQLKEALENYRYALRLRPDFIDGYINLASALVAAQDLEGAVKAYATALQYNPNLYCVRNDLGNLLKALGRLEEAKACYLKAIETQPNFAVAWSNLGCVFNSQGEIWLAIHHFEKAVTLDNGFLDAYINLGNVLKEARIFDRASTAYLRALNLSPNNPTVLGNLACVYYEQGLMDLAVDTYKRAIELQPNFPDAYCNLANALKELGKVTEAEECYNTALSLCPTHADSLNNLANIKREKGQIGEASKLYRKALEIFPEFAAAHSNLASVLQQQGKLQEALAHYKEAIRINPSFADAYSNMGNTLKEMQDVQGAIQCYTRAIQINPNFADAHSNLASIHKDSGSIPEAIANYRTALKLKPDFPDAFCNLAHCYQIICDWADYELRMKRLVSIVQDQLEKGRLPSVHPHHTMLYPLDGHTRKAISNRHGNLCLDRTATIHKPPYKFTPNIILPNGKLKIGYVSSDFGNHPTSHLMQSIPKLHDRSRVEVYCYSLTADDGTSFRKEISRGSDHFVDLSQVQCHGDAADRINADGIHILLNMNGYTKGARNEIFALRPAPIQMMWLGYPGTSGAAFMDYIITDKITSPMEYADHYSEKLAFLPNSFFIGDHRHMFAHLSVRATDNGRDRVINLSEGSAPDLDMKDIIEAQLREALSKIDNTSSHINTSTNLISNGTLGSNAVIPNGGPIINGNGDSVPNGPGVNVPSGMVLTTRAQYGLPSKAIIYCNFNQLYKIDPKILETWVRILKRVPNSILWLLRFPAAGEAMLKNTILKMGLPADRVVFTNVAPKEEHVRRGQLADICLDTPMCNGHTTGMDVLWAGVPMITMPKETLASRVASSQLTSLGVSELIAKDLTEYEDVAVKYGSDITRLRKLQDKIWQLRHKSTLFNTKTYCQNLEELYVKVWDRYSQGLEPDHIIY
notes: TaOGT, start identified by RACE, wild type, GST tag cleaved
For B3, the Km [3] was 13 ± 2 µM.

Reference: article PMC4424335 (The Journal of Biological Chemistry, 2015)
